This note sets out measurements from patent publication US20110178017A1 (PHASEBIO PHARMACEUTICALS, published 2011).

What all share (experiment): cell-based or functional assay
Experiment [1] concerns the target human Vasoactive Intestinal Peptide Receptor 1 (VPAC1) (human) (UniProt P32241).
For experiment [2], the target named is human Vasoactive Intestinal Peptide Receptor 2 (VPAC2) (human) (UniProt P41587).
The target in experiment [3] is T1, human Vasoactive Intestinal Peptide Receptor 1 (VPAC1) (human, UniProt P32241 31-457).
T1 sequence (looked up): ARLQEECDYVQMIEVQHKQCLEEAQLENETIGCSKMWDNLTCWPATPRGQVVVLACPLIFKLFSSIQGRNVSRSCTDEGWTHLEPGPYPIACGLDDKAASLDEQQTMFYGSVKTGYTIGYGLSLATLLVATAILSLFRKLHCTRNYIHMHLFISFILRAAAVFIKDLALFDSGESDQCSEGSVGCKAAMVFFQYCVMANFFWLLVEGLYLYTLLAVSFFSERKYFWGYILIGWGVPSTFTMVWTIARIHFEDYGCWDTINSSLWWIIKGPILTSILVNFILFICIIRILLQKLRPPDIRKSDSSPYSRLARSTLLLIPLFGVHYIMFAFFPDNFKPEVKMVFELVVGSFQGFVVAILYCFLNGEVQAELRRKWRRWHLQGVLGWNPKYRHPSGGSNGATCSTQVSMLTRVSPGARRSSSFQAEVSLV

Chain of human Vasoactive Intestinal Peptide Receptor 2 (VPAC2) (human) (P41587 24-438): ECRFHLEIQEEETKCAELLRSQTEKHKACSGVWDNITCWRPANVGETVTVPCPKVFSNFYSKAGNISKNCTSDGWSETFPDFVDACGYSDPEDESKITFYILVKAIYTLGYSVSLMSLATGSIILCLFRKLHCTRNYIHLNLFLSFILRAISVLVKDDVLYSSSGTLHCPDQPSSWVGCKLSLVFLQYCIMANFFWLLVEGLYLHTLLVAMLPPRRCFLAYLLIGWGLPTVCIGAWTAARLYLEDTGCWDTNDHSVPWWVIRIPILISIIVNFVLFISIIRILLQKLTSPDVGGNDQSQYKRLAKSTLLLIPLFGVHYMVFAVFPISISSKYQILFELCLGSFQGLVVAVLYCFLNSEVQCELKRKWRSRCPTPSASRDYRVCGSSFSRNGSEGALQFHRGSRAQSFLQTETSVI

In turn, PB1120 (VIP-ELP1-120 fusion peptide) registered an activity (cAMP) in CHO cells expressing VPAC1, relative to native VIP (fold less active than native VIP) in experiment [1] of 1.4. The molecule further came in with an activity (cAMP) in CHO cells expressing VPAC2, relative to native VIP (fold less active than native VIP) in experiment [2] of 1.5.

B1: PB1046 (M-VIP-ELP1-120 fusion protein) (other)
chain: MHSDAVFTDNYTRLRKQMAVKKYLNSILNVPGVGVPGVGVPGGGVPGAGVPGVGVPGVGVPGVGVPGGGVPGAGVPGGGVPGVGVPGVGVPGGGVPGAGVPGVGVPGVGVPGVGVPGGGVPGAGVPGGGVPGVGVPGVGVPGGGVPGAGVPGVGVPGVGVPGVGVPGGGVPGAGVPGGGVPGVGVPGVGVPGGGVPGAGVPGVGVPGVGVPGVGVPGGGVPGAGVPGGGVPGVGVPGVGVPGGGVPGAGVPGVGVPGVGVPGVGVPGGGVPGAGVPGGGVPGVGVPGVGVPGGGVPGAGVPGVGVPGVGVPGVGVPGGGVPGAGVPGGGVPGVGVPGVGVPGGGVPGAGVPGVGVPGVGVPGVGVPGGGVPGAGVPGGGVPGVGVPGVGVPGGGVPGAGVPGVGVPGVGVPGVGVPGGGVPGAGVPGGGVPGVGVPGVGVPGGGVPGAGVPGVGVPGVGVPGVGVPGGGVPGAGVPGGGVPGVGVPGVGVPGGGVPGAGVPGVGVPGVGVPGVGVPGGGVPGAGVPGGGVPGVGVPGVGVPGGGVPGAGVPGVGVPGVGVPGVGVPGGGVPGAGVPGGGVPGVGVPGVGVPGGGVPGAGVPGVGVPGVGVPGVGVPGGGVPGAGVPGGGVPGWP
For B1, the “activity (cAMP) in CHO cells expressing VPAC1, relative to native VIP” value in experiment [3] was ~11 fold less active than native VIP.
